Results reported in PMC10786891, “Massively parallel profiling of RNA-targeting CRISPR-Cas13d”.
Changes are numbered by the printed parent chain. Numbers in names are those of the source.

T1: EsCas13d, nuclease-dead (Eubacterium siraeum, UniProt B0MS50, R295A;H300A;R849A;H854A)
T1 sequence: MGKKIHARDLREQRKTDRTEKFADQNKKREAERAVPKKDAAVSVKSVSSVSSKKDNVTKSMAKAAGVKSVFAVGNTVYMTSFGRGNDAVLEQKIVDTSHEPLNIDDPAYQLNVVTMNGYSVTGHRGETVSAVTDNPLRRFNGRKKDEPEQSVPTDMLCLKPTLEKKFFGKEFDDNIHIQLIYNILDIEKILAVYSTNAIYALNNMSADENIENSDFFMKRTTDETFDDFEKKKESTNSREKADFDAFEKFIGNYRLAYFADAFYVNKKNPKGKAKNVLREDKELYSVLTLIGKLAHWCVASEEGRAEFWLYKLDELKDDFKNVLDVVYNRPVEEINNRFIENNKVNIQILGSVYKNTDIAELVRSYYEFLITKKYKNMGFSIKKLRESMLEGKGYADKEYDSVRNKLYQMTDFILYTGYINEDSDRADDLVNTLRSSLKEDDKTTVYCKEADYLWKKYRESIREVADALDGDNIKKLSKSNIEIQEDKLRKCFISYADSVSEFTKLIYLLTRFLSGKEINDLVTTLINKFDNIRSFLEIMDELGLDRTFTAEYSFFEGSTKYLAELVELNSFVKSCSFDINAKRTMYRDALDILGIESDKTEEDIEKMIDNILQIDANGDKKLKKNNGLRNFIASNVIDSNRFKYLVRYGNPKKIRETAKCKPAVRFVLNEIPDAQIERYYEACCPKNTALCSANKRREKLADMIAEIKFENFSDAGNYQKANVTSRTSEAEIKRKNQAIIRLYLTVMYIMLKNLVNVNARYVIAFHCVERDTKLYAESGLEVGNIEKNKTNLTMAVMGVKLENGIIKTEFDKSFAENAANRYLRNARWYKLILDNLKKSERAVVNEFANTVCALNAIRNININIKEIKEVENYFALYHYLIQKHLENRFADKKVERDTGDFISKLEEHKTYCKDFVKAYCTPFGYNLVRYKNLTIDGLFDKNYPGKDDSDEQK

B1: target 1 insG 3' of 21,insC 3' of 1 (mixed)
RNA 1: CACCCGUGCAAAAAUGCAGGGGUCUAAAACUGAGCGGAUAACCUCUCUAUGG
RNA 2: GGGAAUGGAUCCACAUCUACGAAUUCGUACCGAUAGAGAGGUUAUCCGCUCACCCGAGAUCGGAAGAGCACACGU
B2: target 1 insG 3' of 21,insA 3' of 2 (mixed)
RNA 1: B1 RNA 1
RNA 2: B1 RNA 2 with C53A
B3: target 1 insG 3' of 21,insG 3' of 1 (mixed)
RNA 1: B1 RNA 1
RNA 2: B1 RNA 2 with C53G
B4: target 3 insG 3' of 7,insC 3' of 3 (mixed)
RNA 1: CACCCGUGCAAAAUUGCAGGGGUCUAAAACGACCUGAAUAUUUCAGAUCAAA
RNA 2: GGGAAUGGAUCCACAUCUACGAAUUCGUUUUUGAUCUGAAAUAUUGCAGGCUCUGCAGAUCGGAAGAGCACACGU
B5: target 3 C1A,A5U (mixed)
RNA 1: B4 RNA 1
RNA 2: GGGAAUGGAUCCACAUCUACGAAUUCGUUUUUGAUCUGAAAUAUUCUGGUAUGCAGAUCGGAAGAGCACACGU
B6: target 3 C1U,A11G (mixed)
RNA 1: B4 RNA 1
RNA 2: B5 RNA 2 with A41G, U47A, A51U
B7: target 3 insG 3' of 22,insU 3' of 3 (mixed)
RNA 1: B4 RNA 1
RNA 2: GGGAAUGGAUCCACAUCUACGAAUUCGUUUGUUGAUCUGAAAUAUUCAGGUUCUGCAGAUCGGAAGAGCACACGU
B8: target 3 G3U,U22G (mixed)
RNA 1: B4 RNA 1
RNA 2: B5 RNA 2 with U30G, U47A, G49U, A51C
B9: target 3 insG 3' of 6,insU 3' of 4 (mixed)
RNA 1: B4 RNA 1
RNA 2: B4 RNA 2 with G46C, C47G, G50U, C51G
B10: target 3 insU 3' of 22,insA 3' of 22 (mixed)
RNA 1: B4 RNA 1
RNA 2: GGGAAUGGAUCCACAUCUACGAAUUCGUUUUAUUGAUCUGAAAUAUUCAGGUCUGCAGAUCGGAAGAGCACACGU
B11: target 3 insC 3' of 5 (mixed)
RNA 1: B4 RNA 1
RNA 2: GGGAAUGGAUCCACAUCUACGAAUUCGUUUUUGAUCUGAAAUAUUCACGGUCUGCAGAUCGGAAGAGCACACGU
B12: target 3 insC 3' of 18,insC 3' of 11 (mixed)
RNA 1: B4 RNA 1
RNA 2: GGGAAUGGAUCCACAUCUACGAAUUCGUUUUUGACUCUGAAACUAUUCAGGUCUGCAGAUCGGAAGAGCACACGU
B13: target 3 A13G,U22A (mixed)
RNA 1: B4 RNA 1
RNA 2: B5 RNA 2 with U30A, A39G, U47A, A51C
B14: target 3 C1U,A5U (mixed)
RNA 1: B4 RNA 1
RNA 2: B5 RNA 2 with A51U
B15: target 3 insU 3' of 6,insG 3' of 6 (mixed)
RNA 1: B4 RNA 1
RNA 2: B4 RNA 2 with G46C, C47U, A48G, G49A, C51G
B16: target 3 insU 3' of 4,insU 3' of 4 (mixed)
RNA 1: B4 RNA 1
RNA 2: B4 RNA 2 with G46C, C47A, A48G, G49U, G50U, C51G
B17: target 3 U2A,U8A (mixed)
RNA 1: B4 RNA 1
RNA 2: B5 RNA 2 with U44A, U47A, U50A, A51C
B18: target 3 insC 3' of 3,insA 3' of 2 (mixed)
RNA 1: B4 RNA 1
RNA 2: B4 RNA 2 with G46C, C47A, A48G, G50C, C51U, U52A
B19: target 3 C1G,U21A (mixed)
RNA 1: B4 RNA 1
RNA 2: B5 RNA 2 with U31A, U47A, A51G
B20: target 3 insA 3' of 6,insA 3' of 3 (mixed)
RNA 1: B4 RNA 1
RNA 2: B4 RNA 2 with G46C, C47A, C51A
B21: target 3 insA 3' of 22,insA 3' of 8 (mixed)
RNA 1: B4 RNA 1
RNA 2: B7 RNA 2 with G31A, U46A, C47U, A48C, G49A, U51G
B22: target 3 insA 3' of 6,insG 3' of 6 (mixed)
RNA 1: B4 RNA 1
RNA 2: B4 RNA 2 with G46C, C47A, A48G, G49A, C51G
B23: target 3 U2G,A5C (mixed)
RNA 1: B4 RNA 1
RNA 2: B5 RNA 2 with U47C, U50G, A51C
B24: target 3 C1A,A11G (mixed)
RNA 1: B4 RNA 1
RNA 2: B5 RNA 2 with A41G, U47A
B25: target 3 A12G (mixed)
RNA 1: B4 RNA 1
RNA 2: B5 RNA 2 with A40G, U47A, A51C
B26: target 3 G4U,U8C (mixed)
RNA 1: B4 RNA 1
RNA 2: B5 RNA 2 with U44C, U47A, G48U, A51C
B27: target 3 U2A,U8G (mixed)
RNA 1: B4 RNA 1
RNA 2: B5 RNA 2 with U44G, U47A, U50A, A51C
B28: target 3 insG 3' of 7,insA 3' of 2 (mixed)
RNA 1: B4 RNA 1
RNA 2: B4 RNA 2 with C51U, U52A
B29: target 3 A5U (mixed)
RNA 1: B4 RNA 1
RNA 2: B5 RNA 2 with A51C
B30: target 3 insG 3' of 8,insC 3' of 4 (mixed)
RNA 1: B4 RNA 1
RNA 2: B4 RNA 2 with U45G, G46U, G50C, C51G
B31: target 3 C1U,C6A (mixed)
RNA 1: B4 RNA 1
RNA 2: B5 RNA 2 with C46A, U47A, A51U
B32: target 3 G4A,U22G (mixed)
RNA 1: B4 RNA 1
RNA 2: B5 RNA 2 with U30G, U47A, G48A, A51C
B33: target 3 G3A,G4C (mixed)
RNA 1: B4 RNA 1
RNA 2: B5 RNA 2 with U47A, G48C, G49A, A51C

Target: T1, EsCas13d, nuclease-dead
Assay: crRNA (strand 1, pre-loaded); Mg2+; 40 mM Tris-HCl pH 7.5, 150 mM NaCl, 6 mM MgCl2, 1 mM DTT, 0.1% Tween-20, 0.2 mg/ml BSA; 25 C; 10 min per concentration, then washed
Settings: tags: His6-TwinStrep-SUMO cleaved; N-terminal SNAP kept (SNAP-Surface 488); label: 3' end held by stalled T7 RNA polymerase

Binder | Kd
B1 | 69 ± 12 nM
B2 | 54 ± 13 nM
B3 | 66 ± 10 nM
B4 | 46 ± 5 nM
B5 | 5.9 ± 1 nM
B6 | 55.5 ± 13 nM
B7 | 68 ± 26 nM
B8 | 94 ± 21.5 nM
B9 | 11.3 ± 1.2 nM
B10 | 13.4 ± 1.35 nM
B11 | 19.2 ± 1.75 nM
B12 | 37 ± 5 nM
B13 | 43 ± 15 nM
B14 | 12.9 ± 3.05 nM
B15 | 8.7 ± 0.95 nM
B16 | 14.5 ± 1.2 nM
B17 | 39 ± 6 nM

Binder | Kd
B18 | 18.6 ± 2.2 nM
B19 | 44.5 ± 10.5 nM
B20 | 6.15 ± 0.6 nM
B21 | 98.5 ± 35.5 nM
B22 | 41 ± 4.5 nM
B23 | 120 ± 32.5 nM
B24 | 41 ± 14.5 nM
B25 | 43 ± 7.5 nM
B26 | 39 ± 5 nM
B27 | 29.8 ± 3.4 nM
B28 | 32.5 ± 5.75 nM
B29 | 65.5 ± 14.5 nM
B30 | 38.5 ± 8 nM
B31 | 59 ± 21 nM
B32 | 56.5 ± 9 nM
B33 | 9.25 ± 0.85 nM
